From paper PMC4595643, “Pathways of allosteric regulation in Hsp70 chaperones” (Nature Communications, 2015)
Ends that are not written are not given here. * marks the point of attachment. IAANS = 2-(4'-(iodoacetamido)anilino)naphthalene-6-sulfonic acid label, O=C(C*)Nc1ccc(Nc2ccc3cc(S(=O)(=O)O)ccc3c2)cc1; HiLyte Fluor 488 maleimide = HiLyte Fluor 488-maleimide (Anaspec) label

How the values were obtained:
Settings in all cases: both partners purified
wild-type DnaK [1] = target: T1, wild-type DnaK (Escherichia coli, UniProt P0A6Y8 1-638); assay: MST; 100 nM HiLyte Fluor 488-labelled peptide with 0.6 nM-10 μM DnaK, HKM buffer (25 mM HEPES/KOH pH 7.6, 50 mM KCl, 5 mM MgCl2) with 0.1% Tween-20, incubated at least 30 min, 30 °C, Monolith NT.115
T1 construct: DnaK, the Hsp70 of Escherichia coli; also called DnaKwt; Wt; source: E. coli ΔdnaK52 cells (BB1553), purified (Ni-IDA, Resource Q), nucleotides removed

DnaK-V440A [2] = target: T2, DnaK-V440A (Escherichia coli, UniProt P0A6Y8 1-638, V440A); assay: as above
T2 construct: DnaK, the Hsp70 of Escherichia coli, Val440 replaced by alanine; source: E. coli ΔdnaK52 cells (BB1553), purified (Ni-IDA, Resource Q), nucleotides removed

DnaK-L484A [3] = target: T3, DnaK-L484A (Escherichia coli, UniProt P0A6Y8 1-638, L484A); assay: as above
T3 construct: DnaK, the Hsp70 of Escherichia coli, Leu484 replaced by alanine; source: E. coli ΔdnaK52 cells (BB1553), purified (Ni-IDA, Resource Q), nucleotides removed

DnaK-D148A [4] = target: T4, DnaK-D148A (Escherichia coli, UniProt P0A6Y8 1-638, D148A); assay: as above
T4 construct: DnaK, the Hsp70 of Escherichia coli, Asp148 replaced by alanine; source: E. coli ΔdnaK52 cells (BB1553), purified (Ni-IDA, Resource Q), nucleotides removed

wild-type DnaK [5] = target: T1, wild-type DnaK; assay: fluorescence dissociation kinetics (chase with unlabelled peptide); no nucleotide; 0.5 μM DnaK and 0.5 μM IAANS-labelled peptide pre-incubated at least 30 min, then mixed with 50-fold excess of unlabelled peptide; HKM buffer, 30 °C; Perkin Elmer LS55
DnaK-F146A = target: T5, DnaK-F146A (Escherichia coli, UniProt P0A6Y8 1-638, F146A); assay: as above
T5 construct: DnaK, the Hsp70 of Escherichia coli, Phe146 replaced by alanine; source: E. coli ΔdnaK52 cells (BB1553), purified (Ni-IDA, Resource Q), nucleotides removed

DnaK-D148A [6] = target: T4, DnaK-D148A; assay: as above
DnaK-Y145F = target: T6, DnaK-Y145F (Escherichia coli, UniProt P0A6Y8 1-638, Y145F); assay: as above
T6 construct: DnaK, the Hsp70 of Escherichia coli, Tyr145 replaced by phenylalanine; source: E. coli ΔdnaK52 cells (BB1553), purified (Ni-IDA, Resource Q), nucleotides removed

DnaK-Y145H = target: T7, DnaK-Y145H (Escherichia coli, UniProt P0A6Y8 1-638, Y145H); assay: as above
T7 construct: DnaK, the Hsp70 of Escherichia coli, Tyr145 replaced by histidine; source: E. coli ΔdnaK52 cells (BB1553), purified (Ni-IDA, Resource Q), nucleotides removed

DnaK-Y145A = target: T8, DnaK-Y145A (Escherichia coli, UniProt P0A6Y8 1-638, Y145A); assay: as above
T8 construct: DnaK, the Hsp70 of Escherichia coli, Tyr145 replaced by alanine; source: E. coli ΔdnaK52 cells (BB1553), purified (Ni-IDA, Resource Q), nucleotides removed

DnaK-D481A = target: T9, DnaK-D481A (Escherichia coli, UniProt P0A6Y8 1-638, D481A); assay: fluorescence dissociation kinetics (chase with unlabelled peptide); in the presence of ATP; 0.5 μM DnaK and 0.5 μM IAANS-labelled peptide pre-incubated at least 30 min, then mixed with 50-fold excess of unlabelled peptide; HKM buffer, 30 °C; stopped flow
T9 construct: DnaK, the Hsp70 of Escherichia coli, Asp481 replaced by alanine; source: E. coli ΔdnaK52 cells (BB1553), purified (Ni-IDA, Resource Q), nucleotides removed

DnaK-D481K = target: T10, DnaK-D481K (Escherichia coli, UniProt P0A6Y8 1-638, D481K); assay: as above
T10 construct: DnaK, the Hsp70 of Escherichia coli, Asp481 replaced by lysine; source: E. coli ΔdnaK52 cells (BB1553), purified (Ni-IDA, Resource Q), nucleotides removed

DnaK-V440A [7] = target: T2, DnaK-V440A; assay: as above
DnaK-L484A [8] = target: T3, DnaK-L484A; assay: as above

Measured: binding result

B1: HiLyte Fluor 488-labelled σ32-Q132-Q144-C (peptide)
peptide: QRKLFFNLRKTKQC(HiLyte Fluor 488 maleimide)
notes: residues Q132-Q144 of σ32, the E. coli heat shock transcription factor; cysteine added at the C-terminus of the peptide (the '-C' of its name); also called fluorescently labelled peptide derived from σ32
binds: wild-type DnaK [1] | DnaK-V440A [2] | DnaK-L484A [3] | DnaK-D148A [4]

B2: IAANS-labelled peptide σ32-Q132-Q144-C (peptide)
peptide: QRKLFFNLRKTKQC(IAANS)
notes: residues Q132-Q144 of σ32, the E. coli heat shock transcription factor; cysteine added at the C-terminus of the peptide (the '-C' of its name); also called 2-(4'-(iodoacetamido)anilino)naphthalene-6-sulfonic acid labelled σ32-Q132-Q144-C; substrate
binds: wild-type DnaK [5] | DnaK-F146A | DnaK-D148A [6] | DnaK-Y145F | DnaK-Y145H | DnaK-Y145A | DnaK-D481A | DnaK-D481K | DnaK-V440A [7] | DnaK-L484A [8]
